Percent of transfected cells positive in BiFC and FRET E value data for nine molecules are collected here from paper PMC11290222.

Where two headings read alike, the source gives them in different places.

For experiment [1], the target named is Ubx with E19G in the homeodomain, fused to VN (Ubx^E19G) (Drosophila). As to the kind of experiment: split reporter (BiFC, NanoBiT); BiFC in HEK293 cells co-transfected with VN- and VC-plasmids and pCAG-mCherry; read 48 h after transfection; percent = Venus fluorescent cells in one hundred red fluorescent cells, three independent triplicates.
Experiment [2] concerns the target Ubx homeodomain fused to VN (UbxHD) (Drosophila). The description is as above.
In experiment [3] the target is Ultrabithorax full-length fused to the N-terminal half of Venus (VN-Ubx) (Drosophila) (UniProt P83949). The description is as above.
The target of experiment [4] is Antp^AAAA-Ubx BiFC complex (YPWM mutant Antp with VNUbx) (Drosophila) (UniProt P02833). As to the kind of experiment: split reporter (BiFC, NanoBiT) + FRET or BRET; BiFC-FRET in HEK293 cells: Venus reconstituted by the Antp-Ubx BiFC as acceptor, third protein fused to ECFP as donor; confocal spectral imaging 48 h after transfection; E-value by FRETTY in ImageJ.
Experiment [5] concerns the target AntpΔHD-Ubx BiFC pair (VC-AntpΔHD with VNUbx) (Drosophila) (UniProt P02833). The description is as above.
Experiment [6] addresses Ubx homeodomain fused to VN (UbxHD) (Drosophila). As to the kind of experiment: split reporter (BiFC, NanoBiT); BiFC in HEK293 cells co-transfected with VN- and VC-plasmids and pCAG-mCherry; read 48 h after transfection; percent = Venus fluorescent cells in one hundred red fluorescent cells, three independent triplicates. The source holds these as a separate data set.

Sequence of Ubx homeodomain fused to VN (UbxHD) (Drosophila) (P83949 whole entry, the tested form may be a part): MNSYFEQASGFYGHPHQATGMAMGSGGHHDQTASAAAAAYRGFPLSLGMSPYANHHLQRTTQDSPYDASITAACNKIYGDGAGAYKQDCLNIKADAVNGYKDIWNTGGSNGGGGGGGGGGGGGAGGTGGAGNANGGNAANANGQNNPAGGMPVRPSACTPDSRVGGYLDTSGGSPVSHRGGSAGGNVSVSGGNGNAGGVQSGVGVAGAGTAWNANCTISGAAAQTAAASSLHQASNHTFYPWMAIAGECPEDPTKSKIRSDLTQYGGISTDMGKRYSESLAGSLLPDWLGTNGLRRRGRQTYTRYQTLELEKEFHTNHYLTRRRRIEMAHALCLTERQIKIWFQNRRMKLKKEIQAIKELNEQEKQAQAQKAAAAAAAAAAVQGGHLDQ

For “Antennapedia full-length fused to the C-terminal half of Venus (VC-Antp) (from UniProt P02833 1-378) (natural protein)”, the percent of transfected cells positive in BiFC in experiment [1] turned out to be 86%.

In experiment [2], “Antp homeodomain fused to VC (AntpHD) (domain or fragment)” returned a percent of transfected cells positive in BiFC of 96%.

Turning to “Antp homeodomain with E19G, fused to VC (AntpHD^E19G) (domain or fragment)”, the percent of transfected cells positive in BiFC in experiment [1] was 67%; in experiment [3], 60%.

The molecule “Antp lacking homeodomain helix 1, fused to VC (AntpΔH1) (from UniProt P02833 1-378) (natural protein)” had a percent of transfected cells positive in BiFC in experiment [3] of 24%.

“Antp lacking homeodomain helixes 1 and 2, fused to VC (AntpΔH1-2) (from UniProt P02833 1-378) (natural protein)” registered a percent of transfected cells positive in BiFC in experiment [3] of 12%.

In turn, “Antp with the homeodomain deleted, fused to VC (AntpΔHD) (from UniProt P02833 1-378) (natural protein)” returned a percent of transfected cells positive in BiFC in experiment [3] of 6%.

With “TBP without the PolyQ stretch, fused to a Venus half for BiFC (TBPΔQ) (from UniProt P20227 1-353) (natural protein)”, the percent of transfected cells positive in BiFC in experiment [2] was 15%; in experiment [3], 34%.

B1: Extradenticle fused to ECFP (natural protein)
chain: MEDPNRMLAHTGGMMAPQGYGLSGQDDGQNAGSENEVRKQKDIGEILQQIMSISEQSLDEAQARKHTLNCHRMKPALFSVLCEIKEKTVLSIRNTQEEEPPDPQLMRLDNMLIAEGVAGPEKGGGGAAAASAAAASQGGSLSIDGADNAIEHSDYRAKLAQIRQIYHQELEKYEQACNEFTTHVMNLLREQSRTRPITPKEIERMVQIIHKKFSSIQMQLKQSTCEAVMILRSRFLDARRKRRNFSKQASEILNEYFYSHLSNPYPSEEAKEELARKCGITVSQVSNWFGNKRIRYKKNIGKAQEEANLYAAKKAAGASPYSMAGPPSGTTTPMMSPAPPQDSMGYPMGSGGYDQQQPYDNSMGGYDPNLHQDLSP
For the molecule B1, the results for the FRET E value in experiment [4] and in experiment [5] were 0.16 and 0.12, respectively.

B2: TATA-binding protein fused to a Venus half for BiFC (TBP) (natural protein)
chain: MDQMLSPNFSIPSIGTPLHQMEADQQIVANPVYHPPAVSQPDSLMPAPGSSSVQHQQQQQQSDASGGSGLFGHEPSLPLAHKQMQSYQPSASYQQQQQQQQLQSQAPGGGGSTPQSMMQPQTPQSMMAHMMPMSERSVGGSGAGGGGDALSNIHQTMGPSTPMTPATPGSADPGIVPQLQNIVSTVNLCCKLDLKKIALHARNAEYNPKRFAAVIMRIREPRTTALIFSSGKMVCTGAKSEDDSRLAARKYARIIQKLGFPAKFLDFKIQNMVGSCDVKFPIRLEGLVLTHCNFSSYEPELFPGLIYRMVRPRIVLLIFVSGKVVLTGAKVRQEIYDAFDKIFPILKKFKKQS
The molecule B2 returned a percent of transfected cells positive in BiFC in experiment [6] of 41%.
